Measurements from article PMC8752837, “Structural basis of BAK activation in mitochondrial apoptosis initiation” (Nature Communications, 2022).
Like-named read-outs stand apart in the source and are kept apart here.

Assays:
[1] = biological target: tevBAK (residues 22–186) (human) (UniProt Q16611); experiment: ITC; 250 or 500 µM BID BH3 peptide injected into 20 or 50 µM tevBAK; 25 °C; 20 mM HEPES, 100 mM NaCl, 1 mM TCEP; single site binding model
[2] = biological target: T1, Human BAK-∆TM-His6 (human); experiment: SPR; MEAS-BAK-His6 captured (~500 RU) on Ni2+-charged NTA HisCap chip, peptides injected; 20 °C; 20 mM HEPES pH 8.0, 200 mM NaCl, 1 mM TCEP, 0.01% Tween20; 1:1 interaction model
T1 sequence (Q16611 whole entry, looked up): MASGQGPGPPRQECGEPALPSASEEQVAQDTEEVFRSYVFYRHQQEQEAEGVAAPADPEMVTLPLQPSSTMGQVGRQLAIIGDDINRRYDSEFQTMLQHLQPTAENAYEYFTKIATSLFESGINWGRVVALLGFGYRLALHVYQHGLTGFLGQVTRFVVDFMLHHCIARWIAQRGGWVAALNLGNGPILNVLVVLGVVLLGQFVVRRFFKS

[3] = biological target: T2, MEAS-BAK-His6 (C-terminus truncated recombinant human BAK containing C-terminal 6x histidine tag) (human) (UniProt Q16611); experiment: SPR; MEAS-BAK-His6 captured (~500 RU) on Ni-NTA HisCap chip, peptides injected; 20 °C; 20 mM HEPES pH 8.0, 200 mM NaCl, 1 mM TCEP, 0.01% Tween20; 1:1 interaction model
T2 sequence: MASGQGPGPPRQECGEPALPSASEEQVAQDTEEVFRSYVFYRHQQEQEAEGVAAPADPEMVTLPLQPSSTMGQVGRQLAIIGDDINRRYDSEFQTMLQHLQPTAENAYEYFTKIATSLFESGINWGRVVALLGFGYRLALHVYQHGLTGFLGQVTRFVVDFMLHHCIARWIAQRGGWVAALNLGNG

[4] = biological target: T2, MEAS-BAK-His6 (C-terminus truncated recombinant human BAK containing C-terminal 6x histidine tag) (human); experiment: as above; remark: listed apart in the source
[5] = biological target: T2, MEAS-BAK-His6 (C-terminus truncated recombinant human BAK containing C-terminal 6x histidine tag) (human)
GST-BAK (human) = experiment: fluorescence polarisation; competitive: displacement of 10 nM BID BH3 SAHB-F from 1 µM GST-BAK by peptides at 500-0.2 µM; 50 mM Tris-HCl pH 7.5, 50 mM KCl, 0.1 mg/mL BSA, 2 mM DTT, 0.005% Tween-20; 60 min at RT

Substance	Kd [3]	koff [3]	kon [3]	IC50 (GST-BAK (human))	further results
M(3)W(5) BID-like BH3 peptide	–	–	–	–	fold higher affinity than WT BID BH3 [1]: 30 fold; fold higher affinity than WT BID BH3 [2]: 30 fold
W(3)W(5) BID BH3 peptide	0.336 µM	0.0241 s⁻¹	71900 M⁻¹ s⁻¹	–	kon [4]: 79100 M⁻¹ s⁻¹
WT BID BH3 peptide	62.3 µM	0.261 s⁻¹	4190 M⁻¹ s⁻¹	–	Supplementary Table 1: liposome permeabilization EC50 (peptide dose against AUC, 50 nM BAK; data of Supplementary Figure 7c) [5]: 0.059 µM
Y(3) BID BH3 peptide	–	–	–	6.2 µM	–
Y(4) BID BH3 peptide	–	–	–	6.9 µM	–
